Experimental data from patent US20200030424A1 (INNOVATIVE CELLULAR THERAPEUTICS, published 2020).
Changes are numbered by the printed parent chain.

B1: hFMC63 (antibody, V domains shown)
VH: QVQLQESGPGLVKPSETLSLTCTVSGVSLPDYGWSWIRQPPGKGLEWIGRIWGSETTYYNPSLKSRVTISVDTSKNQFSLKLSSVTAADTAVYYCAKHYYYGGSYAMDYWGQGTLVTVSS
VL: DIQMTQTTSSLSASLGDRVTISCRASQDISKYLNWYQQKPDGTVKLLIYHTSRLHSGVPSRFSGSGSGTDYSLTISNLEQEDIATYFCQQGNTLPYTFGGGTKLEIK
notes: Humanized heavy chain hFMC63VH in pTSEG1n-S (human heavy constant)
B2: h1FMC63 (antibody, V domains shown)
VH: B1 VH with W34V, R50V, P61S, S62A
VL: B1 VL
notes: Humanized heavy chain h1FMC63VH in pTSEG1n-S (human heavy constant)
B3: h2FMC63VH + L5F3 (antibody, V domains shown)
VH: EVQLVESGGGLVQPGGSLRLSCAASGVSLPDYGVSWVRQAPGKGLEWVSVIWGSETTYYNSALKSRFTISRDNAKNSLYLQMNSLRAEDTAVYYCAKHYYYGGSYAMDYWGQGTLVTVSS
VL: SYELTQPPSVSVAPGQTARITCGGNNLGDNSARWYQQKPGQAPVLVIYGNSNRPSGIPERFSGSNSGNTATLTISGTQAEDEADYYCQVTDTRSTSVVFGGGTKLTVL
notes: Humanized monoclonal antibody transiently expressed in HEK293 cells, with heavy chain from pTSEG1n-h2FMC63VH; also called L5F3 (humanized antibody)
B4: h2FMC63VH + L2D8 (antibody, V domains shown)
VH: B3 VH
VL: DIQMTQSPSSLSASVGDRVTITCRASQSVGSFLAWYQQKPGKAPKLLIYGASSRESGVPSRFSGSGSGTDFTLTISSLQPEDFATYYCQQTYHNPETFGQGTKVEIK
notes: Humanized monoclonal antibody transiently expressed in HEK293 cells, with heavy chain from pTSEG1n-h2FMC63VH; also called L2D8 (humanized antibody)
B5: h2FMC63 (antibody, V domains shown)
VH: B3 VH
VL: B1 VL
notes: Humanized heavy chain h2FMC63VH in pTSEG1n-S (human heavy constant); also called third version of a humanized antibody
B6: h2FMC63VH + L2D12 (antibody, V domains shown)
VH: B3 VH
VL: SYELTQPPSVSVAPGQTARITCGGNDLRAQYVHWYQQKPGQAPVLVMYDDSKRPSGIPERFSGSNSGNTATLTISGTQAEDEADYYCQSWDRTSEPKVFGGGTKLTVL
notes: Humanized monoclonal antibody transiently expressed in HEK293 cells, with heavy chain from pTSEG1n-h2FMC63VH; also called L2D12 (humanized antibody)

What was measured:
[1] = target: T1, Human CD19 expressed on cell surfaces (Raji cells; CD19-K562 cells) (human, UniProt P15391 20-556); assay: flow cytometry on Raji cells
T1 construct: whole, on cells; also called antigen CD19; human CD19 antigen
T1 sequence (looked up): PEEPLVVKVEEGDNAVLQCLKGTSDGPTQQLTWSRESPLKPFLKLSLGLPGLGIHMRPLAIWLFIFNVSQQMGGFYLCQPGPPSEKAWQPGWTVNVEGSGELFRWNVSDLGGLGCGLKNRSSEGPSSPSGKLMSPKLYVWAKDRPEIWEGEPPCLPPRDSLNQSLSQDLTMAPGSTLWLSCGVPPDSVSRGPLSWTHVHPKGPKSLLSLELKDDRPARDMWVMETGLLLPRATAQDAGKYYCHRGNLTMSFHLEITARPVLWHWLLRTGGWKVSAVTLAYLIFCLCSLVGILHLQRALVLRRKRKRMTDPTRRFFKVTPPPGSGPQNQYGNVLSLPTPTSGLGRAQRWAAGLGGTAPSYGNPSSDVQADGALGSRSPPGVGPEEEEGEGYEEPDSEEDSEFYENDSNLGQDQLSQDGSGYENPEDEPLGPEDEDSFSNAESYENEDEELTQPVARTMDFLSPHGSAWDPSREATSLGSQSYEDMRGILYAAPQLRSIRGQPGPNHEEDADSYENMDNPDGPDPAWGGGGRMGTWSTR
Procedure: Raji cell is a strain derived from human B lymphoma cell line. Raji cells were purchased from Chinese Academy of Medical Sciences, Institute of Basic Medical Cell Resource Center. The surface of Raji cells expresses antigen CD19, and the anti-CD19 antibody can be used to analyze the binding capacity of recombinant humanized monoclonal antibodies. By flow cytometry (IFA), binding abilities of the four recombinant humanized antibodies were analyzed.

[2] = target: T1, Human CD19 expressed on cell surfaces …; assay: flow cytometry on CD19-K562 cells

Binder	MFI (GeoMean) [1]	MFI(Geo) [2]
B1	67	
B2	186	
B3		147
B4		125
B5	330	
B6		55.5
